{"source": "paper PMC8914513", "about": "“Inhibition of Protein Kinase CK2 Affects Thymidylate Synthesis Cycle Enzyme Level and Distribution in Human Cancer Cells” (Frontiers in Molecular Biosciences, 2022)", "binders": {"B1": {"name": "dihydrofolate reductase (DHFR), tagless ligand in QCM-D (enzyme, UniProt P00374 1-187, looked up)", "chain": "MVGSLNCIVAVSQNMGIGKNGDLPWPPLRNEFRYFQRMTTTSSVEGKQNLVIMGKKTWFSIPEKNRPLKGRINLVLSRELKEPPQGAHFLSRSLDDALKLTEQPELANKVDMVWIVGGSSVYKEAMNHPGHLKLFVTRIMQDFESDTFFPEIDLEKYKLLPEYPGVLSDVQEEKGIKYKFEVYEKND", "notes": "dihydrofolate reductase (DHFR); source: recombinant, overexpressed and purified as described previously (Antosiewicz et al., 2015; Skierka et al., 2019); His tag removed with Thrombin CleanCleave Kit"}, "B2": {"name": "dihydrofolate reductase (DHFR), fluorescently labeled, as used in MST (enzyme, UniProt P00374 1-187, looked up)", "chain": "B1 chain", "modifications": "fluorescently labeled (dye and site not stated)", "notes": "dihydrofolate reductase (DHFR); also called labeled DHFR; source: recombinant, overexpressed and purified as described previously (Antosiewicz et al., 2015; Skierka et al., 2019)"}, "B3": {"name": "serine hydroxymethyltransferase, cytosolic (SHMT1), as used in MST (enzyme, UniProt P34896 1-483, looked up)", "chain": "MTMPVNGAHKDADLWSSHDKMLAQPLKDSDVEVYNIIKKESNRQRVGLELIASENFASRAVLEALGSCLNNKYSEGYPGQRYYGGTEFIDELETLCQKRALQAYKLDPQCWGVNVQPYSGSPANFAVYTALVEPHGRIMGLDLPDGGHLTHGFMTDKKKISATSIFFESMPYKVNPDTGYINYDQLEENARLFHPKLIIAGTSCYSRNLEYARLRKIADENGAYLMADMAHISGLVAAGVVPSPFEHCHVVTTTTHKTLRGCRAGMIFYRKGVKSVDPKTGKEILYNLESLINSAVFPGLQGGPHNHAIAGVAVALKQAMTLEFKVYQHQVVANCRALSEALTELGYKIVTGGSDNHLILVDLRSKGTDGGRAEKVLEACSIACNKNTCPGDRSALRPSGLRLGTPALTSRGLLEKDFQKVAHFIHRGIELTLQIQSDTGVRATLKEFKERLAGDKYQAAVQALREEVESFASLFPLPGLPDF", "modifications": "fluorescently labeled in the SHMT-TS titration only; unlabeled titrant in the other MST experiments", "notes": "cytosolic serine hydroxymethyltransferase (SHMT1); Same preparation as m1; source: recombinant, overexpressed, purified (Ni-NTA, dialysis)"}, "B4": {"name": "serine hydroxymethyltransferase, cytosolic (SHMT1), His-tagged, immobilised in QCM-D (enzyme, UniProt P34896 1-483, looked up)", "chain": "B3 chain", "notes": "cytosolic serine hydroxymethyltransferase (SHMT1); Purified and stored with 50 uM pyridoxal phosphate; Captured by its His tag on the QSX340 sensor; also called His-tagged SHMT; His-tagged SHMT1; source: recombinant, overexpressed, purified (Ni-NTA, dialysis)"}}, "conditions_in_all_cases": "both partners purified", "key": {"[1]": {"biological_target": "B4", "assay": "QCM-D (quartz crystal microbalance with dissipation monitoring); two proteins: 5 uM His-tagged SHMT immobilised on His-tag capturing sensor QSX340; tagless ligand introduced (0.1-1.0 uM or 0.5-7.0 uM for TS, pTS or DHFR); 20 mM Tris-HCl pH 7.6, 100 mM (salt not given), 10 mM MgCl2, 0.05% Tween 20, 25 C, 200 ul/min; Langmuir isotherm fit"}, "[2]": {"biological_target": "B3", "assay": "MST; two proteins in solution, Premium capillaries: labeled DHFR with SHMT 157 uM-4.79 nM; labeled SHMT with TS 62.0 uM-1.9 nM; labeled pTS with SHMT 157 uM-4.79 nM; Kd model fit"}, "[3]": {"biological_target": "T1, labeled DHFR with a constant concentration of TS (9.0 uM), MST tri-complex assay ( | human, UniProt P00374 1-187; P04818 1-313, fluorescently labeled (dye and site not stated))", "T1 construct": "dihydrofolate reductase (DHFR); human thymidylate synthase (TS); A mixture at constant concentrations, not a purified complex; also called DHFR/TS; source: purified recombinant proteins mixed: constant labeled DHFR and 9.0 uM TS", "T1 sequence (P04818 whole entry, one chain of several)": "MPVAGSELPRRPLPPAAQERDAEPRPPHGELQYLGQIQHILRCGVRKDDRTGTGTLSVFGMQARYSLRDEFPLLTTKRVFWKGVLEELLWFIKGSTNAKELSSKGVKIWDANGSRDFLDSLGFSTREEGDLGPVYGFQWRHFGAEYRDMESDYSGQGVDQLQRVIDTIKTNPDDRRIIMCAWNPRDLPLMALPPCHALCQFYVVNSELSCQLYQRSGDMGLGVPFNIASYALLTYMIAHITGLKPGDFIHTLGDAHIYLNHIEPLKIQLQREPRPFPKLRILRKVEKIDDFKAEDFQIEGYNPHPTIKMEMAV", "assay": "MST; tri-complex: constant labeled DHFR and TS or pTS (9.0 uM), SHMT titrated 157 uM-4.79 nM; Kd model fit"}, "[4]": {"biological_target": "T2, labeled DHFR with a constant concentration of pTS (9.0 uM), MST tri-complex assay ( | human, UniProt P00374 1-187); P04818 1-313, fluorescently labeled (dye and site not stated) | phosphorylated in vitro by CK2alpha; residue not stated for this preparation (the introduction names serine 124 as the site of CK2-mediated …)", "T2 construct": "dihydrofolate reductase (DHFR); human thymidylate synthase (TS); A mixture at constant concentrations, not a purified complex; also called DHFR/pTS; source: purified recombinant proteins mixed: constant labeled DHFR and 9.0 uM pTS", "T2 sequence (P04818 whole entry, one chain of several)": "as above", "assay": "MST; tri-complex: constant labeled DHFR and TS or pTS (9.0 uM), SHMT titrated 157 uM-4.79 nM; Kd model fit"}, "[5]": {"biological_target": "T3, mixture of DHFR and pTS introduced together in the three-protein QCM-D assay ( | human, UniProt P00374 1-187; P04818 1-313, phosphorylated in vitro by CK2alpha; residue not stated for this preparation (the introduction names serine 124 as the site of CK2-mediated phosphorylation of human TS))", "T3 construct": "dihydrofolate reductase (DHFR); human thymidylate synthase (TS); A mixture, not a purified preformed complex; only the DHFR concentration was varied; also called DHFR/pTS; fixed pTS and variable DHFR; source: purified recombinant proteins mixed: pTS fixed at 1.0 uM, DHFR 0.25-2.0 uM", "T3 sequence (P04818 whole entry, one chain of several)": "as above", "assay": "QCM-D (quartz crystal microbalance with dissipation monitoring); three proteins: 5 uM His-tagged SHMT1 immobilised on the sensor; mixture of fixed pTS (1.0 uM) and DHFR 0.25-2.0 uM introduced; 20 mM Tris-HCl pH 7.6, 100 mM (salt not given), 10 mM MgCl2, 0.05% Tween 20, 25 C, 200 ul/min; Langmuir isotherm fit"}}}
{"binder": "B1", "values": [{"measurement": "Kd", "setting": "[1]", "value": "12.1 ± 7.86", "unit": "µM"}]}
{"binder": "B2", "values": [{"measurement": "Kd", "setting": "[2]", "value": "12.6 ± 0.66", "unit": "µM"}]}
{"binder": "B3", "values": [{"measurement": "Kd", "setting": "[3]", "value": "5.04 ± 0.5", "unit": "µM"}, {"measurement": "Kd", "setting": "[4]", "value": "0.32 ± 0.05", "unit": "µM"}]}
{"binder": "B4", "values": [{"measurement": "Kd", "setting": "[5]", "value": "0.28 ± 0.23", "unit": "µM"}]}
